Laboratory results taken from the supplement of paper PMC5998384.

What was measured:
HeLa Kyoto [1] = test: solubility change mitosis vs G1/S (difference of NP-40 vs SDS log2 ratios) (log2 ratio difference); higher = more soluble in mitosis
HeLa Kyoto [2] = test: solubility in G1/S (NP-40 vs SDS abundance) (log2 ratio); higher = more soluble; conditions: cell cycle stage: G1/S
HeLa Kyoto [3] = test: thermal stability score vs G1/S (z-score of summed log2 fold changes over temperatures); higher = more thermally stable than in G1/S
HeLa Kyoto [4] = test: melting temperature (median over replicates), in situ; higher = more thermally stable
[5] = cell cycle stage: early G1 (4.5 h after nocodazole release)
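Wherever melting temperature (median over replicates), in situ is given: HeLa Kyoto cells synchronized by double thymidine or nocodazole block, proteins quantified by TMT10plex mass spectrometry, three independent biological replicates.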
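Wherever solubility change mitosis vs G1/S (difference of NP-40 vs SDS log2 ratios) is given: synchronized HeLa Kyoto cells (double thymidine block for G1/S, nocodazole release for mitosis), protein amounts in NP-40 versus SDS lysates quantified by mass spectrometry, three biological replicates.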
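Wherever solubility in G1/S (NP-40 vs SDS abundance) is given: HeLa Kyoto cells arrested at G1/S by double thymidine block, proteins quantified by TMT10plex mass spectrometry in mild NP-40 versus SDS extracts, three biological replicates.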
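Wherever thermal stability score vs G1/S (z-score of summed log2 fold changes over temperatures) is given: synchronized HeLa Kyoto cells, proteins quantified by TMT10plex mass spectrometry, three biological replicates, mitosis taken 0.5 h after nocodazole release, G1/S directly after double thymidine block.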

MMTAG2, sequence (chain, as listed by the source): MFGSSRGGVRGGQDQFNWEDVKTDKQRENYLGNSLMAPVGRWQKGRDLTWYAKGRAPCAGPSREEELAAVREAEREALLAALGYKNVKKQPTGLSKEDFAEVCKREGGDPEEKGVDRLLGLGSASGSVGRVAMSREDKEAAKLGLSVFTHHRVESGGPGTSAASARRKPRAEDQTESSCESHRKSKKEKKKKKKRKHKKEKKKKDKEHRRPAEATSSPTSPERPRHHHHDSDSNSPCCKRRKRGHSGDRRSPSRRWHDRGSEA

Row | Substance | solubility change mitosis (log2) (HeLa Kyoto [1]) | solubility in G1/S (log2) (HeLa Kyoto [2]) | thermal stability score (HeLa Kyoto [3]; [5]) | thermal stability score (HeLa Kyoto [3]; cell cycle stage: mitosis) | melting temperature (HeLa Kyoto [4]; cell cycle stage: G1/S) [°C] | melting temperature (HeLa Kyoto [4]; cell cycle stage: mitosis) [°C]
1 | MMHFKSGLELTELQNMTVPEDDNISNDSNDFTEVENGQINSKFISDRESRRSLTNSHLEKKKCDEYIPGTTSLGMSVFNLSNAIMGSGILGLAFALANTGILLFLVLLTSVTLLSIYSINLLLICSKETGCMVYEKLGEQVFGTTGKFVIFGATSLQNTGAMLSYLFIVKNELPSAIKFLMGKEETFSAWYVDGRVLVVIVTFGIILPLCLLKNLGYLGYTSGFSLSCMVFFLIVVIYKKFQIPCIVPELNSTISANSTNADTCTPKYVTFNSKTVYALPTIAFAFVCHPSVLPIYSELKDRSQKKMQMVSNISFFAMFVMYFLTAIFGYLTFYDNVQSDLLHKYQSKDDILILTVRLAVIVAVILTVPVLFFTVRSSLFELAKKTKFNLCRHTVVTCILLVVINLLVIFIPSMKDIFGVVGVTSANMLIFILPSSLYLKITDQDGDKGTQRIWAALFLGLGVLFSLVSIPLVIYDWACSSSSDEGH [SLC38A1] | -0.24 | -0.379 | -1.68 | -3.89 | 57.8 | 59.4
2 | MMIHGFQSSHRDFCFGPWKLTASKTHIMKSADVEKLADELHMPSLPEMMFGDNVLRIQHGSGFGIEFNATDALRCVNNYQGMLKVACAEEWQESRTEGEHSKEVIKPYDWTYTTDYKGTLLGESLKLKVVPTTDHIDTEKLKAREQIKFFEEVLLFEDELHDHGVSSLSVKIRVMPSSFFLLLRFFLRIDGVLIRMNDTRLYHEADKTYMLREYTSRESKISSLMHVPPSLFTEPNEISQYLPIKEAVCEKLIFPERIDPNPADSQKSTQVE [TIPRL] | -0.0696 | 0.0228 | -0.544 | -1.01 | 50.8 | 51.3
3 | MMKFRFRRQGADPQREKLKQELFAFNKTVEHGFPNQPSALAFDPELRIMAIGTRSGAVKIYGAPGVEFTGLHRDAATVTQMHFLTGQGRLLSLLDDSSLHLWEIVHHNGCAHLEEALSFQLPSRPGFDGASAPLSLTRVTVVLLVAASDIAALGTEGSSVFFLDVTTLTLLEGQTLAPGEVLRSVPDDYRCGKALGPVESLQGHLRDPTKILIGYSRGLLVIWNQASQCVDHIFLGNQQLESLCWGRDSSTVVSSHSDGSYAVWSVDAGSFPTLQPTVATTPYGPFPCKAINKILWRNCESGGHFIIFSGGMPRASYGDRHCVSVLRAETLVTLDFTSRIIDFFTVHSTRPEDEFDDPQALAVLLEEELVVLDLQTPGWPAVPAPYLAPLHSSAITCSAHVASVPAKLWARIVSAGEQQSPQPVSSALSWPITGGRNLAQEPSQRGLLLTGHEDGTVRFWDASGVALRPLYKLSTAGLFQTDCEHADSLAQAAEDDWPPFRKVGCFDPYSDDPRLGVQKVALCKYTAQMVVAGTAGQVLVLELSDVPVEQAVSVAIIDLLQDREGFTWKGHERLSPRTGPLPWPAGFQPRVLVQCLPPAAVTAVTLHTEWSLVAFGTSHGFGLFDYQRKSPVLARCTLHPNDSLAMEGPLSRVKSLKKSLRQSFRRIRKSRVSGKKRAANASSKLQEANAQLAEQACPHDVEMTPVQRRIEPRSADDSLSGVVRCLYFADTFLRDGAHHGPTMWAGTNSGSVFAYALEVPAAAVGGEKRPEQAVEAVLGKEVQLMHRAPVVAIAVLDGRGRPLPEPYEASRDLAQAPDMQGGHAVLIASEEQFKVFTLPKVSAKTKFKLTAHEGCRVRKVALATFASVACEDYAETCLACLTNLGDVHVFSVPGLRPQVHYSCIRKEDISGIASCVFTRHGQGFYLISPSEFERFSLSARNITEPLCSLDINWPRDATQASYRIRESPKLSQANGTPSILLAPQSLDGSPDPAHSMGPDTPEPPEAALSPMSIDSATSADTTLDTTGDVTVEDVKDFLGSSEESEKNLRNLAEDEAHACAILIK [LLGL1] | -0.209 | 0.0124 | -0.436 | -0.753 | 50.9 | 49.7
4 | MMLGPEGGEGFVVKLRGLPWSCSVEDVQNFLSDCTIHDGAAGVHFIYTREGRQSGEAFVELGSEDDVKMALKKDRESMGHRYIEVFKSHRTEMDWVLKHSGPNSADSANDGFVRLRGLPFGCTKEEIVQFFSGLEIVPNGITLPVDPEGKITGEAFVQFASQELAEKALGKHKERIGHRYIEVFKSSQEEVRSYSDPPLKFMSVQRPGPYDRPGTARRYIGIVKQAGLERMRPGAYSTGYGGYEEYSGLSDGYGFTTDLFGRDLSYCLSGMYDHRYGDSEFTVQSTTGHCVHMRGLPYKATENDIYNFFSPLNPVRVHIEIGPDGRVTGEADVEFATHEEAVAAMSKDRANMQHRYIELFLNSTTGASNGAYSSQVMQGMGVSAAQATYSGLESQSVSGCYGAGYSGQNSMGGYD [HNRNPF] | -0.0538 | -0.0868 | 3.58 | 9.17 | 48 | 49
5 | MMLSTEGREGFVVKVRGLPWSCSADEVMRFFSDCKIQNGTSGIRFIYTREGRPSGEAFVELESEEEVKLALKKDRETMGHRYVEVFKSNSVEMDWVLKHTGPNSPDTANDGFVRLRGLPFGCSKEEIVQFFSGLEIVPNGMTLPVDFQGRSTGEAFVQFASQEIAEKALKKHKERIGHRYIEIFKSSRAEVRTHYDPPRKLMAMQRPGPYDRPGAGRGYNSIGRGAGFERMRRGAYGGGYGGYDDYGGYNDGYGFGSDRFGRDLNYCFSGMSDHRYGDGGSSFQSTTGHCVHMRGLPYRATENDIYNFFSPLNPMRVHIEIGPDGRVTGEADVEFATHEDAVAAMAKDKANMQHRYVELFLNSTAGTSGGAYDHSYVELFLNSTAGASGGAYGSQMMGGMGLSNQSSYGGPASQQLSGGYGGGYGGQSSMSGYDQVLQENSSDYQSNLA [HNRNPH2] | -0.0078 | -0.272 | 1.83 | 2.38 | 45 | 45.2
6 | MMP15 | -0.0164 | -0.181 | -0.0989 | -0.65 | 54.4 | 55.3
7 | MMQGEAHPSASLIDRTIKMRKETEARKVVLAWGLLNVSMAGMIYTEMTGKLISSYYNVTYWPLWYIELALASLFSLNALFDFWRYFKYTVAPTSLVVSPGQQTLLGLKTAVVQTTPPHDLAATQIPPAPPSPSIQGQSVLSYSPSRSPSTSPKFTTSCMTGYSPQLQGLSSGGSGSYSPGVTYSPVSGYNKLASFSPSPPSPYPTTVGPVESSGLRSRYRSSPTVYNSPTDKEDYMTDLRTLDTFLRSEEEKQHRVKLGSPDSTSPSSSPTFWNYSRSMGDYAQTLKKFQYQLACRSQAPCANKDEADLSSKQAAEEVWARVAMNRQLLDHMDSWTAKFRNWINETILVPLVQEIESVSTQMRRMGCPELQIGEASITSLKQAALVKAPLIPTLNTIVQYLDLTPNQEYLFERIKELSQGGCMSSFRWNRGGDFKGRKWDTDLPTDSAIIMHVFCTYLDSRLPPHPKYPDGKTFTSQHFVQTPNKPDVTNENVFCIYQSAINPPHYELIYQRHVYNLPKGRNNMFHTLLMFLYIIKTKESGMLGRVNLGLSGVNILWIFGE [TMEM209] | -0.145 | 0.161 | 0.688 | 3.82 | 52 | 53.2
8 | MMSDASDMLAAALEQMDGIIAGSKALEYSNGIFDCQSPTSPFMGSLRALHLVEDLRGLLEMMETDEKEGLRCQIPDSTAETLVEWLQSQMTNGHLPGNGDVYQERLARLENDKESLVLQVSVLTDQVEAQGEKIRDLEFCLEEHREKVNATEEMLQQELLSRTSLETQKLDLMAEISNLKLKLTAVEKDRLDYEDKFRDTEGLIQEINDLRLKVSEMDSERLQYEKKLKSTKSLMAKLSSMKIKVGQMQYEKQRMEQKWESLKDELASLKEQLEEKESEVKRLQEKLVCKMKGEGVEIVDRDIEVQKMKKAVESLMAANEEKDRKIEDLRQCLNRYKKMQDTVVLAQGKDGEYEELLNSSSISSLLDAQGFSDLEKSPSPTPVMGSPSCDPFNTSVPEEFHTTILQVSIPSLLPATVSMETSEKSKLTPKPETSFEENDGNIILGATVDTQLCDKLLTSSLQKSSSLGNLKKETSDGEKETIQKTSEDRAPAESRPFGTLPPRPPGQDTSMDDNPFGTRKVRSSFGRGFFKIKSNKRTASAPNLAETEKETAEHLDLAGASSRPKDSQRNSPFQIPPPSPDSKKKSRGIMKLFGKLRRSQSTTFNPDDMSEPEFKRGGTRATAGPRLGWSRDLGQSNSDLDMPFAKWTKEQVCNWLMEQGLGSYLNSGKHWIASGQTLLQASQQDLEKELGIKHSLHRKKLQLALQALGSEEETNHGKLDFNWVTRWLDDIGLPQYKTQFDEGRVDGRMLHYMTVDDLLSLKVVSVLHHLSIKRAIQVLRINNFEPNCLRRRPSDENTIAPSEVQKWTNHRVMEWLRSVDLAEYAPNLRGSGVHGGLMVLEPRFNVETMAQLLNIPPNKTLLRRHLATHFNLLIGAEAQHQKRDAMELPDYVLLTATAKVKPKKLAFSNFGNLRKKKQEDGEEYVCPMELGQASGSASKKGFKPGLDMRLYEEDDLDRLEQMEDSEGTVRQIGAFSEGINNLTHMLKEDDMFKDFAARSPSASITDEDSNV [PPFIBP1] | -0.0985 | 0.425 | 0.0729 | 0.352 | 49.4 | 49
9 | MMSQSSGSGDGNDDEATTSKDGGFSSPSPSAAAAAQEVRSATDGNTSTTPPTSAKKRKLNSSSSSSSNSSNEREDFDSTSSSSSTPPLQPRDSASPSTSSFCLGVSVAASSHVPIQKKLRFEDTLEFVGFDAKMAEESSSSSSSSSPTAATSQQQQLKNKSILISSVASVHHANGLAKSSTTVSSFANSKPGSAKKLVIKNFKDKPKLPENYTDETWQKLKEAVEAIQNSTSIKYNLEELYQAVENLCSYKISANLYKQLRQICEDHIKAQIHQFREDSLDSVLFLKKIDRCWQNHCRQMIMIRSIFLFLDRTYVLQNSMLPSIWDMGLELFRAHIISDQKVQNKTIDGILLLIERERNGEAIDRSLLRSLLSMLSDLQIYQDSFEQRFLEETNRLYAAEGQKLMQEREVPEYLHHVNKRLEEEADRLITYLDQTTQKSLIATVEKQLLGEHLTAILQKGLNNLLDENRIQDLSLLYQLFSRVRGGVQVLLQQWIEYIKAFGSTIVINPEKDKTMVQELLDFKDKVDHIIDICFLKNEKFINAMKEAFETFINKRPNKPAELIAKYVDSKLRAGNKEATDEELEKMLDKIMIIFRFIYGKDVFEAFYKKDLAKRLLVGKSASVDAEKSMLSKLKHECGAAFTSKLEGMFKDMELSKDIMIQFKQYMQNQNVPGNIELTVNILTMGYWPTYVPMEVHLPPEMVKLQEIFKTFYLGKHSGRKLQWQSTLGHCVLKAEFKEGKKELQVSLFQTLVLLMFNEGEEFSLEEIKQATGIEDGELRRTLQSLACGKARVLAKNPKGKDIEDGDKFICNDDFKHKLFRIKINQIQMKETVEEQASTTERVFQDRQYQIDAAIVRIMKMRKTLSHNLLVSEVYNQLKFPVKPADLKKRIESLIDRDYMERDKENPNQYNYIA [CUL4B] | -0.261 | 0.0519 | -1.29 | -1.57 | 54.6 | 54.4
10 | MMTAG2 | 0.48 | -1.03 | -3.08 | -5.63 | 53 | 51.3
